Earlier results on seven molecules are cited in paper PMC11866755.

Assay in all cases: NMR
Data set [1] deals with Asp59 (UniProt position 80, VCCSTDKCN--).
Data set [2] has as its target Asp42 (UniProt position 63, KRGCADNCPKN).
The target in data set [3] is His4 (UniProt position 25, YTLKCHNTQLP).
For data set [4], the target named is Glu17 (UniProt position 38, YKTCPEGKNLC).
The target of data set [5] is Asp66 (UniProt position 84, RWWCNDGRTPG).
Data set [6] deals with Asp119 (UniProt position 137, RCKGTDVQAWI).
The target of data set [7] is Glu35 (UniProt position 53, CAAKFESNFNT).
Data set [8] addresses Asp101 (UniProt position 119, KKIVSDGNGMN).
Data set [9] has as its target Asp52 (UniProt position 70, TDGSTDYGILQ).
The target in data set [10] is Asp18 (UniProt position 36, KRHGLDNYRGY).
Data set [11] concerns the target Glu7 (UniProt position 25, VFGRCELAAAM).
In data set [12] the target is His15 (UniProt position 33, AAMKRHGLDNY).
The target in data set [13] is Asp48 (UniProt position 66, TNRNTDGSTDY).
The target of data set [14] is Asp87 (UniProt position 105, ALLSSDITASV).
For data set [15], the target named is Glu57 (UniProt position 139, EKYGPEASAFT). As to conditions: folded protein, ligand state not stated.
Data set [16] deals with Glu135 (UniProt position 217, AQAKKEKLNIW). To be noted: folded protein, ligand state not stated.
Data set [17] addresses His121 (UniProt position 203, KGNNTHEQLLR). As to conditions: folded protein, ligand state not stated.
Data set [18] has as its target Glu122 (UniProt position 204, GNNTHEQLLRK). As to conditions: folded protein, ligand state not stated.
In data set [19] the target is Glu75 (UniProt position 157, KKIEVEFDKGQ). To be noted: folded protein, ligand state not stated.
The target of data set [20] is Asp77 (UniProt position 159, IEVEFDKGQRT). As to conditions: folded protein, ligand state not stated.
Data set [21] addresses Asp83 (UniProt position 165, KGQRTDKYGRG). As to conditions: folded protein, ligand state not stated.
Data set [22] has as its target Glu52 (UniProt position 134, PKKFNEKYGPE). As to conditions: folded protein, ligand state not stated.
Data set [23] has as its target Glu129 (UniProt position 211, LLRKAEAQAKK). To be noted: folded protein, ligand state not stated.
Data set [24] addresses Asp40 (UniProt position 122, RLLLVDTPETK). To be noted: folded protein, ligand state not stated.
Data set [25] has as its target His8 (UniProt position 90, STKKLHKEPAT). As to conditions: folded protein, ligand state not stated.
In data set [26] the target is Glu43 (UniProt position 125, LVDTPETKHPK). As to conditions: folded protein, ligand state not stated.
The target of data set [27] is Asp95 (UniProt position 177, AYIYADGKMVN). To be noted: folded protein, ligand state not stated.
Data set [28] addresses Glu67 (UniProt position 149, TKKMVENAKKI). As to conditions: folded protein, ligand state not stated.
For data set [29], the target named is Glu10 (UniProt position 92, KKLHKEPATLI). To be noted: folded protein, ligand state not stated.
Data set [30] addresses Glu101 (UniProt position 183, GKMVNEALVRQ). To be noted: folded protein, ligand state not stated.
Data set [31] has as its target Glu73 (UniProt position 155, NAKKIEVEFDK). To be noted: folded protein, ligand state not stated.
For data set [32], the target named is His2 (position 2, ----GHAEG--). To be noted: free peptide in solution.
Data set [33] has as its target Glu4 (position 4, --GHAEG----). To be noted: free peptide in solution.
The target in data set [34] is His2 (position 2, ----GHAHG--). To be noted: free peptide in solution.
For data set [35], the target named is His4 (position 4, --GHAHG----). As to conditions: free peptide in solution.
The target of data set [36] is Glu4 (position 4, --GEAEG----). As to conditions: free peptide in solution.
In data set [37] the target is Glu2 (position 2, ----GEAEG--). To be noted: free peptide in solution.
The target of data set [38] is His4 (position 4, --GEAHG----). To be noted: free peptide in solution.
The target in data set [39] is Glu2 (position 2, ----GEAHG--). As to conditions: free peptide in solution.

A value given as a limit tells only on which side of the number the result lay.

Usually pKa stands for the pH at which an ionisable group is half protonated. For the molecule “Cardiotoxin V (cytotoxin 5, CTX A5) (Naja atra (printed as Naja naja atra, Chinese/Taiwan cobra))”, the pKa in [1] is listed as less than 2.0; in data set [2], 3.2; in [3], 5.5; in data set [4] it was 4.0.

Turning to “Hen egg-white lysozyme (HEWL) (Gallus gallus)”, the pKa in [5] is on record as 1.2 ±0.2; in data set [6], 3.5 ±0.3; in data set [7], 6.1 ±0.4; in data set [8], 4.5 ±0.1; in data set [9], 3.6 ±0.3; in data set [10] it was 2.8 ±0.3. The pKa in data set [11] is recorded as 2.6 ±0.2; in data set [12] it was 5.5 ±0.2; in data set [13] it was 1.4 ±0.2; in data set [14], 2.2 ±0.1.

Take “Staphylococcal nuclease Delta+PHS (printed as ΔPHS) (Staphylococcus aureus; G50F;V51N;P117G;H124L;S128A;del44-49)”: the pKa is given as 3.5 in [15]; 3.8 in data set [16]; 5.24 in data set [17]; 3.9 in data set [18]; 3.3 in [19]; less than 2.2 in data set [20]. The pKa in data set [21] is less than 2.2; in data set [22] it was 3.9; in data set [23], 3.8; in data set [24], 3.9; in data set [25], 6.5; in [26], 4.3. In addition, the pKa is 2.2 in data set [27]; 3.58 in [28]; 2.8 in [29]; 3.8 in data set [30]; 3.3 in data set [31].

B1: Pentapeptide GHAEG (synthetic) (peptide)
chain: GHAEG
On to B1, for which the pKa in data set [32] is listed as 6.14; in data set [33], 3.81.

B2: Pentapeptide GHAHG (synthetic) (peptide)
chain: GHAHG
In the case of B2, the pKa in [34] is 6.23; in data set [35], 6.66.

B3: Pentapeptide GEAEG (synthetic) (peptide)
chain: GEAEG
For the molecule B3, the pKa is given as 4.04 in data set [36] and 4.06 in data set [37].

B4: Pentapeptide GEAHG (synthetic) (peptide)
chain: GEAHG
Take B4: the pKa is 6.59 in [38] and 3.76 in data set [39].
